The values that follow come from PMC12203613.

Substrate in this data set: O=C(O)C(=O)Cc1ccc(O)cc1
The data set is described as follows: purified protein. Conditions: Fe(II).

B1: OsHPPD (4-hydroxyphenylpyruvate dioxygenase) (Oryza sativa Japonica Group) (protein)
chain: PPTPTPTATTGAVSAAAAAGENAGFRLVGHRRFVRANPRSDRFQALAFHHVELWCADAASAAGRFAFALGAPLAARSDLSTGNSAHASLLLRSASVAFLFTAPYGGDHGVGADAATTASIPSFSPGAARRFAADHGLAVHAVALRVADAADAFRASVAAGARPAFQPADLGGGFGLAEVELYGDVVLRFVSHPDGADAPFLPGFEGVSNPGAVDYGLRRFDHVVGNVPELAPVAAYISGFTGFHEFAEFTAEDVGTAESGLNSVVLANNAETVLLPLNEPVHGTKRRSQIQTYLDHHGGPGVQHIALASDDVLGTLREMRARSAMGGFEFLAPPPPNYYDGVRRRAGDVLSEEQINECQELGVLVDRDDQGVLLQIFTKPVGDRPTFFLEMIQRIGCMEKDESGQEYQKGGCGGFGKGNFSELFKSIEEYEKSLEAKQAPTVQGS
B1: the Km stood at 40.02 µM.

B2: AtHPPD (4-hydroxyphenylpyruvate dioxygenase) (Arabidopsis thaliana) (protein)
chain: MGHQNAAVSENQNHDDGAASSPGFKLVGFSKFVRKNPKSDKFKVKRFHHIEFWCGDATNVARRFSWGLGMRFSAKSDLSTGNMVHASYLLTSGDLRFLFTAPYSPSLSAGEIKPTTTASIPSFDHGSCRSFFSSHGLGVRAVAIEVEDAESAFSISVANGAIPSSPPIVLNEAVTIAEVKLYGDVVLRYVSYKAEDTEKSEFLPGFERVEDASSFPLDYGIRRLDHAVGNVPELGPALTYVAGFTGFHQFAEFTADDVGTAESGLNSAVLASNDEMVLLPINEPVHGTKRKSQIQTYLEHNEGAGLQHLALMSEDIFRTLREMRKRSSIGGFDFMPSPPPTYYQNLKKRVGDVLSDDQIKECEELGILVDRDDQGTLLQIFTKPLGDRPTIFIEIIQRVGCMMKDEEGKAYQSGGCGGFGKGNFSELFKSIEEYEKTLEAKQLVG
With B2, the Km turned out to be 44.04 µM.

Broadly, the Km is the substrate concentration at which the rate is half of its maximum.
